This note sets out measurements from publication PMC10643120 (Nature structural & molecular biology, 2023).

This data set deals with the molecule itself. The experiment in a line: SEC-MALS; 100 μL of purified protein at 5 mg/mL on Superdex 200 Increase 10/300 GL in buffer GF (300 mM NaCl, 1 mM DTT). (In general: SEC sorts molecules by how far they enter the pores of the column.)

As usually defined, the stoichiometry N is a count of units in the complex or per binding partner.

B1: gp2 homolog of phage Psa21 (gp3), purified (natural protein, Pseudomonas phage Psa21, UniProt A0A481W4E6 1-229, looked up)
chain: MNPVYDIFNDIANNMVTVENKEEFLSNTVRLVGASGKEHVLSIAQAQLLLGVLDGSHQFLTDYNPLEFLLFSYQFQDKIKLKYVAVQYQIIYDADDDSIFVSGVTRHPMTVVGHPDYVAGASVPIETFQTTIPNVGLYGGLALVNCIATQSPDFAPVKGSFGGSFIFEFDGGKQSIRRYVPAEIDEPVIHKEELQEALDEAVKKFVPSAAPKVEFNGIKDTSTKTEQEI
As to B1, the “stoichiometry N” value is 2.

B2: 201Φ2-1 gp2 (ChmB), purified (natural protein, Pseudomonas phage 201Φ2-1, UniProt B3FJX8 1-179, looked up)
chain: MTLIAKPAVPDTEVLNHIGRDLLLKDEDGSFKLQRHLKILTEEGLVHQVSFAQVDGLLNILDSTRETPPCSPLQYLITHYDLKDLVELGKDGWLVPEYQVVVMHSSKTVRFEGKLTRVGSIDKEFTFALGGFDFIQQLSLARCIASLGKEFEQVIGTFDCTYVFKTGPDGISVSTDIGV
On to B2, for which the “stoichiometry N” value was found to be 2.

B3: ΦPA3 gp2 (ChmB), purified (natural protein, Pseudomonas phage ΦPA3, UniProt F8SJN3 1-197, looked up)
chain: MTDVAYPYLETSTLFDNIVKGQILEPDAESPQLSHVLKITDAAGIGHEVTFFQLSILLAILQGNKHELTDNQPHQYLVNQWVLTDLHNIYDEGYVMTSHRVIVDHVEEVATFTGTLVHQKTIRSHPNWQEGFTAPVKEFEFNLENFGIFHQIVFSQCIANLTPELDWVARTFGHSYIFEMEGRNVRVASIQEEGTTE
For the protein B3, the “stoichiometry N” value was 2.
